Target: the molecule itself
Test: single-cell single-molecule pull-down

B1: mNG::AraD (mNG::3xFlag::AraD) (enzyme, E. coli, UniProt P08203 1-231, looked up)
chain: MLEDLKRQVLEANLALPKHNLVTLTWGNVSAVDRERGVFVIKPSGVDYSVMTADDMVVVSIETGEVVEGTKKPSSDTPTHRLLYQAFPSIGGIVHTHSRHATIWAQAGQSIPATGTTHADYFYGTIPCTRKMTDAEINGEYEWETGNVIVETFEKQGIDAAQMPGVLVHSHGPFAWGKNAEDAVHNAIVLEEVAYMGIFCRQLAPQLPDMQQTLLDKHYLRKHGAKAYYGQ
stoichiometry N: 4
